{"source": "the RNAGym collection of RNA variant scans (doi:10.1073/pnas.2313332121)", "parents": {"B1": {"name": "TPR t1 (parent)", "chain": "GACCAAUCUGCCCUCAGAGCUCGAGAACAUCUUCGGAUGCAGAGGAGGCAGGCUUCGGUGGCGCGAUAGCGCCAACGUCCUCAACCUCCAAUGCAUCCCACCACAUGAUGAUGCCUGAAGAGCCUUGGUUUUUUG"}}, "data": [{"variants_of": "B1", "experiment": "polymerase ribozyme fitness, log enrichment relative to wild type (log ratio); higher = more active; in vitro selection for triplet polymerase activity", "method_in_brief": "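Each subunit of a heterodimeric triplet polymerase ribozyme was represented by a PCR-built, transcribed mutant library that underwent triplicate single-round in vitro selection with frozen incubation at −7 °C. Extended constructs were recovered by gel excision, streptavidin-bead capture and RT-PCR, and Illumina sequencing of input and output libraries kept genotypes with ≥10 input reads and ≥1 read per output. Fitness is the logarithm of genotype enrichment relative to wild-type enrichment, from inverse-variance-weighted replicate averages, with a logarithm base of 2.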", "values": [{"variant": "C3A C72U C94G", "polymerase ribozyme fitness (log ratio)": -3.51}, {"variant": "A27G U106A", "polymerase ribozyme fitness (log ratio)": -2.32}, {"variant": "A26G C62A C82U", "polymerase ribozyme fitness (log ratio)": -3.78}, {"variant": "G69U C70G A100C", "polymerase ribozyme fitness (log ratio)": -1.23}, {"variant": "G52C C89G G127C", "polymerase ribozyme fitness (log ratio)": -2.37}, {"variant": "A43U C62G", "polymerase ribozyme fitness (log ratio)": -3.88}, {"variant": "C8U A46C G63U U106C", "polymerase ribozyme fitness (log ratio)": -1.81}, {"variant": "G39U C79U", "polymerase ribozyme fitness (log ratio)": -0.704}, {"variant": "C15G G61C", "polymerase ribozyme fitness (log ratio)": -2.41}, {"variant": "A16G A41U G60U C86G C124G", "polymerase ribozyme fitness (log ratio)": -2.13}, {"variant": "A75U C104U U106A", "polymerase ribozyme fitness (log ratio)": -0.439}, {"variant": "U38G U55G", "polymerase ribozyme fitness (log ratio)": 0.414}, {"variant": "A6C A24G A26G U87G U112C A121G", "polymerase ribozyme fitness (log ratio)": -0.944}, {"variant": "A6C C22A U87C G113C", "polymerase ribozyme fitness (log ratio)": -5.35}, {"variant": "C8G G36A A74U A90G", "polymerase ribozyme fitness (log ratio)": -0.292}, {"variant": "C8G U54G", "polymerase ribozyme fitness (log ratio)": 0.644}, {"variant": "C64A G69C A75U U87A U96A", "polymerase ribozyme fitness (log ratio)": -1.55}, {"variant": "C88U C101U", "polymerase ribozyme fitness (log ratio)": -0.588}, {"variant": "A6C U21A A37G A90G G120U G127U", "polymerase ribozyme fitness (log ratio)": -0.919}, {"variant": "C4A G45A C72A C123A", "polymerase ribozyme fitness (log ratio)": -0.972}, {"variant": "C28U G93A", "polymerase ribozyme fitness (log ratio)": -1.92}, {"variant": "U92A U130G U131G", "polymerase ribozyme fitness (log ratio)": -5.8}, {"variant": "C64U U78C", "polymerase ribozyme fitness (log ratio)": -0.191}, {"variant": "G61A U92A C123A", "polymerase ribozyme fitness (log ratio)": -2.16}, {"variant": "A6U C22U G51A", "polymerase ribozyme fitness (log ratio)": -5.76}, {"variant": "U55G U96A", "polymerase ribozyme fitness (log ratio)": -1.38}, {"variant": "G35C C114U", "polymerase ribozyme fitness (log ratio)": -5.79}, {"variant": "U78C C102G", "polymerase ribozyme fitness (log ratio)": -5.35}, {"variant": "C13A U14G G42A A84U", "polymerase ribozyme fitness (log ratio)": -3.34}, {"variant": "C13U C20G C64A C73U C104A G110U A121U", "polymerase ribozyme fitness (log ratio)": -7.37}, {"variant": "U30C U87G", "polymerase ribozyme fitness (log ratio)": -2.72}, {"variant": "C34G G117C C124A", "polymerase ribozyme fitness (log ratio)": -6.44}, {"variant": "G48A C64A", "polymerase ribozyme fitness (log ratio)": -6.92}, {"variant": "A50U G71U G127A", "polymerase ribozyme fitness (log ratio)": -2.67}, {"variant": "U32A U33C A121U G135A", "polymerase ribozyme fitness (log ratio)": -4.41}, {"variant": "A29U G69U", "polymerase ribozyme fitness (log ratio)": -0.63}, {"variant": "A27G G60U A105U", "polymerase ribozyme fitness (log ratio)": -5.71}, {"variant": "C12A C64U A90C", "polymerase ribozyme fitness (log ratio)": -2.08}, {"variant": "U78C G110U", "polymerase ribozyme fitness (log ratio)": -1.27}, {"variant": "C20A A27U A43U", "polymerase ribozyme fitness (log ratio)": -5.37}, {"variant": "G120C U126A", "polymerase ribozyme fitness (log ratio)": -0.0406}, {"variant": "G63A C98G", "polymerase ribozyme fitness (log ratio)": -6.74}, {"variant": "C11G C40G C70G C89U", "polymerase ribozyme fitness (log ratio)": -5.83}, {"variant": "U9G C94A", "polymerase ribozyme fitness (log ratio)": -0.976}, {"variant": "C8A G63A A83C C86U", "polymerase ribozyme fitness (log ratio)": -0.491}, {"variant": "U54A U81G G120A", "polymerase ribozyme fitness (log ratio)": -3.57}, {"variant": "C8A A18C C56G A95G", "polymerase ribozyme fitness (log ratio)": -2.26}, {"variant": "U9A C15U A41U G60U U92C C123A", "polymerase ribozyme fitness (log ratio)": -0.568}, {"variant": "G77U A91U", "polymerase ribozyme fitness (log ratio)": -2.18}, {"variant": "U78G C82G C99A U112G G128U", "polymerase ribozyme fitness (log ratio)": -6.81}, {"variant": "A46U G48A G128A", "polymerase ribozyme fitness (log ratio)": -4.23}, {"variant": "C70G C85U A90U C104A C115A", "polymerase ribozyme fitness (log ratio)": -6.79}, {"variant": "A46C C89A", "polymerase ribozyme fitness (log ratio)": -5.69}, {"variant": "A6U G45A G52A A75U", "polymerase ribozyme fitness (log ratio)": -0.0939}, {"variant": "C85G G113C C114A U132C", "polymerase ribozyme fitness (log ratio)": -6.29}, {"variant": "C70A G127C", "polymerase ribozyme fitness (log ratio)": -2.17}, {"variant": "A27C C82U C124A", "polymerase ribozyme fitness (log ratio)": -0.986}, {"variant": "C70U A108U", "polymerase ribozyme fitness (log ratio)": -5.38}, {"variant": "C11U G77U U112C", "polymerase ribozyme fitness (log ratio)": 1.4}, {"variant": "G17C C85G C86U A91U U112G", "polymerase ribozyme fitness (log ratio)": -6.74}, {"variant": "A121U C123U", "polymerase ribozyme fitness (log ratio)": 2.27}, {"variant": "C12A C99U", "polymerase ribozyme fitness (log ratio)": -3.06}, {"variant": "C22G C72U C114A", "polymerase ribozyme fitness (log ratio)": -3.16}, {"variant": "A50U C56U", "polymerase ribozyme fitness (log ratio)": -0.861}, {"variant": "C28G A111G", "polymerase ribozyme fitness (log ratio)": -4.41}, {"variant": "A6G C15U C49A C53A G71U U78A", "polymerase ribozyme fitness (log ratio)": -0.614}, {"variant": "A2C G63U U129A", "polymerase ribozyme fitness (log ratio)": -2.77}, {"variant": "C12U G61A A84U", "polymerase ribozyme fitness (log ratio)": 0.279}, {"variant": "C56A G71A U78G G128C U129A", "polymerase ribozyme fitness (log ratio)": -4.83}, {"variant": "C72A A91C G127A", "polymerase ribozyme fitness (log ratio)": -2.21}, {"variant": "G45A C53A U109G G110U A121U", "polymerase ribozyme fitness (log ratio)": -3.48}, {"variant": "A50U C104U", "polymerase ribozyme fitness (log ratio)": -0.896}, {"variant": "A37G U87C A95G A100U U130A", "polymerase ribozyme fitness (log ratio)": -3.04}, {"variant": "C82G C114U", "polymerase ribozyme fitness (log ratio)": -2.95}, {"variant": "C64A G117C", "polymerase ribozyme fitness (log ratio)": -6.03}, {"variant": "G47A C49U", "polymerase ribozyme fitness (log ratio)": -0.915}, {"variant": "C11G C72A C79U A90G C101G A121C U131A", "polymerase ribozyme fitness (log ratio)": 0.276}, {"variant": "C13A G48A", "polymerase ribozyme fitness (log ratio)": -2.23}, {"variant": "C31U G69U C73U A100U", "polymerase ribozyme fitness (log ratio)": -3.8}, {"variant": "C102U A121U", "polymerase ribozyme fitness (log ratio)": 0.0802}, {"variant": "U14G U55C C70A", "polymerase ribozyme fitness (log ratio)": -3.8}, {"variant": "G42C G71U G77C A100U", "polymerase ribozyme fitness (log ratio)": -3.33}, {"variant": "A108G G122U", "polymerase ribozyme fitness (log ratio)": -1.78}, {"variant": "C115A G127A", "polymerase ribozyme fitness (log ratio)": -0.375}]}]}
